These results are taken from the supplement of paper PMC10567573.

The labels stand for the following.
B1: TEKT4 (parent)
chain: YARYHQAFADRDQSERQRHESQQL
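Also: lentivirally expressed fusions sorted by FACS into six bins by GFP to DsRed ratio, PSI derived from sequencing read proportions per bin multiplied by bin number.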

In the data set the parent is B1. The data set is described as follows: protein stability index of a GFP-peptide fusion (GPS, HEK-293T) (PSI 1-6); higher = more stable. The following applies: c terminus: a fixed tail appended.
With YARYHQAFADRDNSERQRHESQQL, the protein stability index is 2.22. The figure for YARYHQAFADRDDSERQRHESQQL is 2.35. The figure for YARYHQAFADRDCSERQRHESQQL is 2.13.

As to YARYHQAFADRDSSERQRHESQQL, the protein stability index amounted to 2.49.

For YARYHQAFADRDASERQRHESQQL, the protein stability index was 1.96. The result for YARYHQAFADRDISERQRHESQQL reads 2.35; that for YARYHQAFADRDTSERQRHESQQL, 1.79.

For the variant YARYHQAFADRDESERQRHESQQL, the protein stability index came out at 1.74. Turning to YARYHQAFADRDKSERQRHESQQL, the protein stability index turned out to be 1.91. Take YARYHQAFADRDLSERQRHESQQL: the protein stability index worked out at 2.49. The figure for YARYHQAFADRDWSERQRHESQQL is 1.72; for YARYHQAFADRDHSERQRHESQQL it is 2.19; for YARYHQAFADRDGSERQRHESQQL it is 2.08. The result for YARYHQAFADRDYSERQRHESQQL reads 1.85; that for YARYHQAFADRDVSERQRHESQQL, 1.99; that for YARYHQAFADRDRSERQRHESQQL, 1.88. The figure for YARYHQAFADRDMSERQRHESQQL is 1.64.

On to YARYHQAFADRDFSERQRHESQQL, for which the protein stability index is 1.83. As for YARYHQAFADRDQSYRQRHESQQL, the protein stability index stood at 1.09.

For the variant YARYHQAFADRDQSGRQRHESQQL, the protein stability index was 1.9.

With YARYHQAFADRDQSLRQRHESQQL, the protein stability index turned out to be 2.18. The figure for YARYHQAFADRDQSFRQRHESQQL is 2.76; for YARYHQAFADRDQSRRQRHESQQL it is 1.78. Turning to YARYHQAFADRDQSKRQRHESQQL, the protein stability index was 1.73. The figure for YARYHQAFADRDQSARQRHESQQL is 1.87; for YARYHQAFADRDQSTRQRHESQQL it is 2.07; for YARYHQAFADRDQSCRQRHESQQL it is 2.36. Turning to YARYHQAFADRDQSQRQRHESQQL, the protein stability index was 1.97. As to YARYHQAFADRDQSHRQRHESQQL, the protein stability index came to 1.75.

With YARYHQAFADRDQSIRQRHESQQL, the protein stability index was determined as 1.52.

Turning to YARYHQAFADRDQSDRQRHESQQL, the protein stability index was 2.1. On to YARYHQAFADRDQSWRQRHESQQL, for which the protein stability index was 1.61. On to YARYHQAFADRDQSNRQRHESQQL, for which the protein stability index was 2.35. The result for YARYHQAFADRDQSVRQRHESQQL reads 1.83; that for YARYHQAFADRDQSMRQRHESQQL, 1.31.

As for YARYHQAFADRDQSSRQRHESQQL, the protein stability index amounted to 1.76. The result for YARYHQAFADRDQSPRQRHESQQL reads 1.8; that for YARYHQAFADRNQSERQRHESQQL, 1.93. Consider YARYHQAFADRCQSERQRHESQQL, for which the protein stability index came to 2.17.

For YARYHQAFADRKQSERQRHESQQL, the protein stability index amounted to 1.67.

In the case of YARYHQAFADRPQSERQRHESQQL, the protein stability index was found to be 1.57. The figure for YARYHQAFADRQQSERQRHESQQL is 2.31. The figure for YARYHQAFADRRQSERQRHESQQL is 1.44; for YARYHQAFADRGQSERQRHESQQL it is 2.08; for YARYHQAFADRFQSERQRHESQQL it is 1.85. The result for YARYHQAFADRVQSERQRHESQQL reads 2.06; that for YARYHQAFADRYQSERQRHESQQL, 1.86; that for YARYHQAFADRMQSERQRHESQQL, 1.7. As for YARYHQAFADREQSERQRHESQQL, the protein stability index stood at 2.01. As to YARYHQAFADRAQSERQRHESQQL, the protein stability index was found to be 1.43. The result for YARYHQAFADRSQSERQRHESQQL reads 1.67. Consider YARYHQAFADRIQSERQRHESQQL, for which the protein stability index stood at 2.58. The figure for YARYHQAFADRHQSERQRHESQQL is 2.15.

For YARYHQAFADRTQSERQRHESQQL, the protein stability index was 2.12. The figure for YARYHQAFADRWQSERQRHESQQL is 2.99; for YARYHQAFADRLQSERQRHESQQL it is 1.98; for YARYHQAFADRDQSERQEHESQQL it is 2.2. The figure for YARYHQAFADRDQSERQAHESQQL is 1.9.

As for YARYHQAFADRDQSERQMHESQQL, the protein stability index was determined as 1.78. The result for YARYHQAFADRDQSERQWHESQQL reads 2.01. The result for YARYHQAFADRDQSERQHHESQQL reads 2.81. The result for YARYHQAFADRDQSERQTHESQQL reads 2.45; that for YARYHQAFADRDQSERQNHESQQL, 2.01. With YARYHQAFADRDQSERQQHESQQL, the protein stability index stood at 2.24. As for YARYHQAFADRDQSERQLHESQQL, the protein stability index is 2.18. The figure for YARYHQAFADRDQSERQCHESQQL is 2.6. For the variant YARYHQAFADRDQSERQGHESQQL, the protein stability index was 3.52.

As for YARYHQAFADRDQSERQKHESQQL, the protein stability index is 2.26. The result for YARYHQAFADRDQSERQDHESQQL reads 2.36.

Turning to YARYHQAFADRDQSERQVHESQQL, the protein stability index was determined as 2.31.

For the variant YARYHQAFADRDQSERQSHESQQL, the protein stability index came to 2.59. The figure for YARYHQAFADRDQSERQYHESQQL is 2.82. YARYHQAFADRDQSERQIHESQQL: the protein stability index was determined as 2.15. As to YARYHQAFADRDQSERQPHESQQL, the protein stability index came out at 2.26. For the variant YARYHQAFADRDQSERQFHESQQL, the protein stability index was 2.23. The figure for YARYHQAFADRDQSEPQRHESQQL is 2.08; for YARYHQAFADRDQSEFQRHESQQL it is 2.81.

For the variant YARYHQAFADRDQSEKQRHESQQL, the protein stability index worked out at 1.93. Consider YARYHQAFADRDQSENQRHESQQL, for which the protein stability index was determined as 2.4. The figure for YARYHQAFADRDQSEMQRHESQQL is 1.89. Take YARYHQAFADRDQSEVQRHESQQL: the protein stability index was 2.35. The figure for YARYHQAFADRDQSESQRHESQQL is 2. With YARYHQAFADRDQSEGQRHESQQL, the protein stability index is 2.48. The figure for YARYHQAFADRDQSEIQRHESQQL is 2.2. The result for YARYHQAFADRDQSEAQRHESQQL reads 2.35; that for YARYHQAFADRDQSEWQRHESQQL, 2.07. The figure for YARYHQAFADRDQSEEQRHESQQL is 2.43.

In the case of YARYHQAFADRDQSELQRHESQQL, the protein stability index was 3.1. The figure for YARYHQAFADRDQSEDQRHESQQL is 2.4; for YARYHQAFADRDQSECQRHESQQL it is 2.63; for YARYHQAFADRDQSEQQRHESQQL it is 2.21. YARYHQAFADRDQSETQRHESQQL: the protein stability index was 2.26.

Take YARYHQAFADRDQSEYQRHESQQL: the protein stability index was 1.91. The figure for YARYHQAFADRDQSEHQRHESQQL is 2.28.
